Ends that are not written are not given here. * marks the point of attachment. Fc = ferrocene monocarboxylic acid coupled as acyl group on the N-terminus, O=C([c-]1cccc1)*.[Fe+2].c1cc[cH-]c1
Biological target: amyloid beta peptide Aβ(1–42) (UniProt P05067 672-713)
Assay: differential pulse voltammetry of the ferrocene tag

Binder: Fc-KLVFFKKKKKK [ferrocene-tagged β-sheet breaker peptide Fc-KLVFFK6]
- t1/2 at [Fc-KLVFFK6]:[Aβ(1–42)] 1:0.25: 1.29 h
- t1/2 at [Fc-KLVFFK6]:[Aβ(1–42)] 1:0.5: 1.35 h
- t1/2 at [Fc-KLVFFK6]:[Aβ(1–42)] 1:1: 1.53 h
- t1/2 at [Fc-KLVFFK6]:[Aβ(1–42)] 1:2: 1.13 h
- t1/2 at [Fc-KLVFFK6]:[Aβ(1–42)] 1:4: 1.02 h

Reference: article PMC3565064 (Analytical biochemistry, 2012)
